In patent US20230203559A1, “METHOD FOR QUANTIFYING ETHANOLAMINE PHOSPHATE, OXIDOREDUCTASE FOR QUANTIFICATION, QUANTIFICATION COMPOSITION, QUANTIFICATION KIT, SENSOR CHIP, AND SENSOR” (KIKKOMAN CORPORATION, priority 2020, published 2023):

Tests used:
[1] = Measurement of EAP combined with ALP and LrHP in plasma model solution containing contaminating amines; format: biochemical
Method: The reaction reagent (pH 8.0) shown in Table 2 was mixed in a 1.5 ml microtube at 4° C. and incubated at 37° C. for 2 minutes. In this case, 47 μl of LrHP was added (so that the final concentration is 1 mg/ml). […] The measurement was paused, 10 μl of alkaline phosphatase (25 U/ml) was added to the cuvette, mixed by pipetting, and immediately set in a spectrophotometer, and the absorbance at 555 nm was measured over time for 500 seconds.

[2] = Verification of EAP to EA conversion reaction by ALP, detected with LrHP (4-AA/TOOS/POD, absorbance at 555 nm); format: biochemical; conditions: 1 mM EAP, LrHP final 25 pg/ml, pH 8.0, 300 seconds
Method: A reagent for activity measurement of the following composition was prepared.
A sample containing 1 mM EA was mixed with the reaction reagent (pH 8.0) shown in Table 2 in a 1.5 ml microtube at 4° C. 2 μl of ALP (so that the final concentration is 5 U/ml) was added thereto and incubated at 37° C. for 5 minutes. 20 μl of LrHP (so that the final concentration is 25 pg/ml) was added thereto, mixed by pipetting, transferred to a cuvette, and immediately set in a spectrophotometer (U-3900, manufactured by Hitachi High-Tech Science Corporation), and the absorbance at 555 nm was measured over time for 300 seconds.
Similarly, a sample containing 1 mM EAP was used, and 2 μl of alkaline phosphatase (ALP) or water was added to the reaction reagent (pH 8.0) (so that the final concentration is 5 U/ml) and incubated at 37° C. for 5 minutes. Next, 20 μl of LrHP (so that the final concentration is 25 pg/ml) was added thereto, mixed by pipetting, transferred to a cuvette, and immediately set in a spectrophotometer, and the absorbance at 555 nm was measured over time for 300 seconds.
The time immediately after the addition of LrHP is set to 0 seconds from the start of the measurement. […] This linear increase in absorbance was similar to the tendency to increase in the case where EA was directly used as a substrate instead of acting phosphatase on EAP.

B1: LrHP: hypothetical protein (GenBank ID CDS02610.1), amino acid sequence SEQ ID NO: 11, derived from Lichtheimia ramosa; oxidase acting on EA (protein, listed as Lichtheimia ramosa)
chain: MSSSPIKPYPLDPLTADEIRRAAALIRETRGQDTTYVFNSLTLKEPSKQQMMSYLGWTNSPSHPKPVTIDREVFAVLIDRPSGLVHEMTVNLDKNQVTRWNKVEGRQPTVNVFEMLEAEREILKDERVKEQCRQLGINDMSMVFADPWGVGYHEIKGKRLVQALMYARTSPDDNQYAHPLDFNPLYDVNAKKVIDIIVSKRRNSSFDRPVIPMANHHFLPEHLGQDRLRKDIKPIEITQPQGVSFSIRDGHQLHWQKWDMHLSFNYREGLVINNLSYRDMDGTVRPIIYRMSLSEMVVPYANPYKPYNHKMAFDVGEYGLGNLTNSLELGCDCVGKICYLDATLSDLNGDPWQIPNAICIHEEDTGLLFKHTDYRTGKAHSARSRRLVISHIVTAANYDYGLYYYFYQDGTIQYEVKATGELNTQVLAADEDAAPYGTIVAPQVDAQHHQHLFSMRIDPMVDGPNNSVAEVDVVASDLPVGHPHNSIGNSFYPVTKVFNTTDEAKTMASIERHRSWKIINENKIHPYAKQPVGFKMMAHPTPPLLPKPGSIVYERAMFASKTLWVTPYNEEQRYPGGFYCYQSEPSENLGLPQWTKETQNVRDTDIVCWLNFGITHIPRVEDFPIMPIETCGVMLKPVNFFLGNPGIDIPPSTRQSTKSAYATEATCCRKNNL
elimination of EA in the sample ([1]; LrHP final 1 mg/ml, EA 10.4 μM, β-alanine 29 μM, taurine 39.5 μM, EAP 1.5 μM, after 500 seconds): the EA in the sample was exhausted | change in absorbance at 555 nm after 500 seconds ([1]; water added instead of ALP, final EAP 1.5 μM): No change in absorbance occurred | change in absorbance at 555 nm (EAP oxidization activity) ([2]; ALP added (final 5 U/ml, 37° C., 5 minutes)): increase in absorbance with time was observed | change in absorbance at 555 nm (EAP oxidization activity) ([2]; ALP not added): no change in absorbance was observed
